Measured values reported in patent US20210380675A1 (Kyowa Kirin, published 2021).

B1: human IL-36Ra, truncated (ligand)
chain: VLSGALCFRMKDSALKVLYLHNNQLLAGGLHAGKVIKGEEISVVPNRWLDASLSPVILGVQGGSQCLSCGVGQEPTLTLEPVNIMELYLGAKESKSFTFYRRDMGLTSSFESAAYPGWFLCTVPEADQPVRLTQLPENGGWNAPITDFYFQQCD
B2: human IL-36γ, truncated (ligand)
chain: SMCKPITGTINDLNQQVWTLQGQNLVAVPRSDSVTPVTVAVITCKYPEALEQGRGDPIYLGIQNPEMCLYCEKVGEQPTLQLKEQKIMDLYGQPEPVKPFLFYRAKTGRTSTLESVAFPDWFIASSKRDQPIILTSELGKSYNTAFELNIND
B3: 144D464A LV9are HV10b (antibody, V domains shown)
VH: QVQLVQSGAEVKKPGASVKVSCKASGFNIKDTYIHWVRQAPGQGLEWIGRIDPAIGTTRYDPKFQGRATITTDTSTSTVYLEFSSLRSEDTAVYYCARLHYFGNNFFFDYWGQGTLVTVSS
VL: QAVVTQEPSLTVSPGGTVTLTCRSSSGAVTTSNYANWVQEKPGQLFAGLIGGTNDRAPGVPARFSGSLLGGKAALTLSGAQPEDEADYFCALWFSNHWVFGGGTKLTVL
notes: Humanized
B4: 144D464A LV7a HV10b (antibody, V domains shown)
VH: QVQLVQSGAEVKKPGASVKVSCKASGFNIKDTYIHWVRQAPGQGLEWIGRIDPAIGTTRYDPKFQGRATITTDTSTSTVYLEFSSLRSEDTAVYYCARLHYFGNNFFFDYWGQGTLVTVSS
VL: QAVVTQEPSLTVSPGGTVTLTCRSSSGAVTTSNYANWVQQKPGQAFAGLIGGTNDRAPGVPARFSGSLLGGKAALTISGAQPEDEADYFCALWFSNHWVFGGGTKLTVL
notes: Humanized; also called humanized 144D464A antibody LV7a HV10b

Columns and labels:
[1] = target: T1, IL-36 receptor (heterodimer of IL-36R and IL-1RAcP) on human cells (human, UniProt Q9HB29 20-575; Q9NPH3 21-570); assay: cell-based or functional assay
T1 sequence (looked up) 1: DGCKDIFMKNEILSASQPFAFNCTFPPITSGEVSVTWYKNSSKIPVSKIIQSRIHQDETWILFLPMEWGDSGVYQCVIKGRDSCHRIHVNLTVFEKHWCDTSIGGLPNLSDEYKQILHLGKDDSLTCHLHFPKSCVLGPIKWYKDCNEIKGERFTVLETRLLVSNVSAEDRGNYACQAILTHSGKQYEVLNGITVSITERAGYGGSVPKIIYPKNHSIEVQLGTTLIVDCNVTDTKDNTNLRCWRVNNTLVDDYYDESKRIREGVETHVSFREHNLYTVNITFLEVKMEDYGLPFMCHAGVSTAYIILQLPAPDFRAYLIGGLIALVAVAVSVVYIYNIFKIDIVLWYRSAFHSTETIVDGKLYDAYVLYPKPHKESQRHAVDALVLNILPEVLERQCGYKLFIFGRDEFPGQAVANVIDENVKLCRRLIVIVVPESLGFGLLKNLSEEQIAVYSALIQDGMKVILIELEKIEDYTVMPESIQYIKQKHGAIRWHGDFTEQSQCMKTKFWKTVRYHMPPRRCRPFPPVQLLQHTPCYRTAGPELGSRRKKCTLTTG
T1 sequence (looked up) 2: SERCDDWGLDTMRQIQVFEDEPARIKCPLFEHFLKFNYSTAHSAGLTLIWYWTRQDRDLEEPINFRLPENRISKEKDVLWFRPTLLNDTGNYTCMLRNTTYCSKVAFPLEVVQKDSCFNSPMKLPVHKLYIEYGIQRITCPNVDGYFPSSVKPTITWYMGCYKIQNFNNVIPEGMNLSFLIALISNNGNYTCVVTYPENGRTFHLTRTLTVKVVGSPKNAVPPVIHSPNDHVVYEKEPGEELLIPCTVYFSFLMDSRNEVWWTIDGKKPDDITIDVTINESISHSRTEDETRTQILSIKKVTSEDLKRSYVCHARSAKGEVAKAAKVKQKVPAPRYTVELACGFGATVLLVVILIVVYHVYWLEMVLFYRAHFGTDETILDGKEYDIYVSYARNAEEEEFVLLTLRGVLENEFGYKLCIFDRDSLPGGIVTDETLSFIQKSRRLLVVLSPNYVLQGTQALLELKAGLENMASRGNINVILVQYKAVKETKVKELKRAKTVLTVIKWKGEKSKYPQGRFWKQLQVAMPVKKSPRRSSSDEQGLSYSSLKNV

[2] = target: T1, IL-36 receptor (heterodimer of IL-36R …); assay: cell-based or functional assay; remark: listed apart in the source
[3] = target: T1, IL-36 receptor (heterodimer of IL-36R …); assay: cell-based or functional assay; remark: listed apart in the source
[4] = target: T1, IL-36 receptor (heterodimer of IL-36R …); assay: cell-based or functional assay; remark: listed apart in the source
[5] = target: T1, IL-36 receptor (heterodimer of IL-36R …); assay: cell-based or functional assay; remark: listed apart in the source
human IL-36γ, truncated [6] = target: B2; assay: cell-based or functional assay
[7] = target: T2, human IL-36α (R&D Systems cat#6995-IL-010/CF) (human, UniProt Q9UHA7 6-158); assay: cell-based or functional assay
T2 sequence (looked up): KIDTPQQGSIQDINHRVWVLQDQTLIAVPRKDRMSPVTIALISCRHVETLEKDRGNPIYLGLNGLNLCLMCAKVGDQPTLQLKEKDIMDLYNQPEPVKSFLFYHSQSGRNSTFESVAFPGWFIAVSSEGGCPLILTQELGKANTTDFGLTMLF

[8] = target: T3, human IL-36α(R12), truncated (human, UniProt Q9UHA7 6-158); assay: SPR, Biacore, 1:1 Langmuir fit
T3 construct: Untagged after removal of the His-SUMO tag; also called hIL-36alpha
T3 chain: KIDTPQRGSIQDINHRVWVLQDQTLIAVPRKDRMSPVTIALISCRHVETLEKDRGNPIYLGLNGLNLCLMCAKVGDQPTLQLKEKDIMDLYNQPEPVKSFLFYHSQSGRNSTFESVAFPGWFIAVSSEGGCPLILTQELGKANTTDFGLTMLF
Experimental: (§1) The humanized antibodies obtained in Example 6 were tested for their binding to recombinant human or cynomolgus macaque IL36a and IL-36γ in Biacore assays. The association time was set to 60 seconds, and the final dissociation time was set to 600 seconds. Equilibrium dissociation constant KD (kd/ka) of exemplary antibodies was determined using a 1:1 Langmuir fit model (see Tables 17-18 below).

human IL-36γ, truncated [9] = target: B2; assay: SPR, Biacore, 1:1 Langmuir fit
Experimental: as §1

[10] = target: T4, cynomolgus IL-36α, truncated (cynomolgus macaque (Macaca fascicularis), UniProt Q9UHA7 14-158 (human entry), limits assumed); assay: SPR, Biacore, 1:1 Langmuir fit
T4 construct: Untagged after removal of the His-SUMO tag; also called cynomolgus IL-36 alpha; cyIL-36alpha
T4 chain: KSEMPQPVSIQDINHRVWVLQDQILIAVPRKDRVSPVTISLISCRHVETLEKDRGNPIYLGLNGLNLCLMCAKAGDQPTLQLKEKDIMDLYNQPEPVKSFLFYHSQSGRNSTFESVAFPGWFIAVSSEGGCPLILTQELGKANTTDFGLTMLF
Experimental: as §1

[11] = target: T5, cynomolgus IL-36γ, truncated (cynomolgus macaque (Macaca fascicularis), UniProt Q9NZH8 18-167 (human entry), limits assumed); assay: SPR, Biacore, 1:1 Langmuir fit
T5 construct: Untagged after removal of the His-SUMO tag; also called cynomolgus IL-36 gamma; cyIL-36gamma
T5 chain: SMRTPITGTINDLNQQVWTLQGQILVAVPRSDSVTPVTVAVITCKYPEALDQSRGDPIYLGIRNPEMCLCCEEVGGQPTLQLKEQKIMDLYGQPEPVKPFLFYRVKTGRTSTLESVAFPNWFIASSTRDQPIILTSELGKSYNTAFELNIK
Experimental: as §1

[12] = target: T3, human IL-36α(R12), truncated; assay: SPR, Biacore, 1:1 Langmuir fit; heads of c3 and c4 printed swapped
Experimental: as §1

human IL-36γ, truncated [13] = target: B2; assay: as above
Experimental: as §1

[14] = target: T4, cynomolgus IL-36α, truncated; assay: as above
Experimental: as §1

[15] = target: T5, cynomolgus IL-36γ, truncated; assay: as above
Experimental: as §1

| Binder | IC50 of IL-8 secretion (AlphaLISA), HaCaT, 10 nM human IL-36γ (human IL-36γ, truncated [6]) [nM] | IC50 of IL-8 secretion (AlphaLISA), HaCaT, 10 nM human IL-36α [7] [nM] | Kd [8] [nM] | Kd (human IL-36γ, truncated [9]) [nM] | Kd [10] [nM] | Kd [11] [nM] | koff [12] [s⁻¹] | kon [12] [M⁻¹ s⁻¹] | koff (human IL-36γ, truncated [13]) [s⁻¹] | kon (human IL-36γ, truncated [13]) [M⁻¹ s⁻¹] | koff [14] [s⁻¹] | kon [14] [M⁻¹ s⁻¹] | koff [15] [s⁻¹] | kon [15] [M⁻¹ s⁻¹] | also measured |
| --- | --- | --- | --- | --- | --- | --- | --- | --- | --- | --- | --- | --- | --- | --- | --- |
| B1 |  |  |  |  |  |  |  |  |  |  |  |  |  |  | IC50 of IL-8 secretion, HaCaT, 10 nM cynomolgus IL-36α, FIG. 2A [1]: 21.8 nM; IC50 of IL-8 secretion, HaCaT, 10 nM cynomolgus IL-36α, FIG. 2B [1]: 20.8 nM; IC50 of IL-8 secretion, HaCaT, 10 nM human IL-36α, FIG. 1A [1]: 39.9 nM; IC50 of IL-8 secretion, HaCaT, 10 nM human IL-36α, FIG. 1B [1]: 46.6 nM; IC50 of IL-8 secretion, HaCaT, 10 nM human IL-36α, FIG. 1C [1]: 90.6 nM; IC50 of IL-8 secretion, HaCaT, 10 nM cynomolgus IL-36γ, FIG. 2C [2]: 174 nM; IC50 of IL-8 secretion, HaCaT, 10 nM cynomolgus IL-36γ, FIG. 2D [2]: 235 nM; IC50 of IL-8 secretion, HaCaT, 10 nM human IL-36γ, FIG. 1D [2]: 45.1 nM; IC50 of IL-8 secretion, HaCaT, 10 nM human IL-36γ, FIG. 1E [2]: 86.5 nM; IC50 of IL-8 secretion, HaCaT, 10 nM human IL-36γ, FIG. 1F [2]: 129 nM; IC50 of IL-8 secretion, primary human keratinocytes, 6.25 nM human IL-36α, FIG. 4A [3]: 11.2 nM; IC50 of IL-8 secretion, primary human keratinocytes, 8 nM human IL-36α, FIG. 4B [3]: 34.6 nM; IC50 of IL-8 secretion, primary human keratinocytes, 8.4 nM human IL-36γ, FIG. 4C [3]: 109 nM; IC50 of IL-8 secretion, primary human keratinocytes, 8.4 nM human IL-36γ, FIG. 4D [3]: 47.9 nM; IC50 of IL-8 secretion, primary human monocytes, 6 nM human IL-36γ, FIG. 5C [4]: 38 nM; IC50 of IL-8 secretion, primary human monocytes, 20 nM human IL-36α, FIG. 5A [4]: 46.5 nM; IC50 of IL-8 secretion, primary human monocytes, 40 nM human IL-36α, FIG. 5B [4]: 69.1 nM; IC50 of IL-8 secretion, primary human monocytes, 50 nM human IL-36γ, FIG. 5D [4]: 76.3 nM |
| B2 |  |  |  |  |  |  |  |  |  |  |  |  |  |  | EC50 (read off the curve) [5]: ~1 nM |
| B3 | 12.5 | 4.51 | 2.1 | 1.3 | 1.19 | 1.13 | 0.000445 | 212000 | 0.000436 | 336000 | 0.000422 | 354000 | 0.000493 | 434000 |  |
| B4 | 7.83 | 3.9 | 2.09 | 1.31 | 1.25 | 1.18 | 0.000456 | 219000 | 0.000451 | 343000 | 0.000451 | 362000 | 0.000523 | 443000 |  |
